Entries after “also recorded” stand apart in the source; their conditions may differ. Read-outs that look alike come from different tables or passages of the source.
How the values were obtained:
mice = mice (Lewis, 1996); cited from earlier work
guinea pigs = test: Succinylcholine lethality in guinea pigs; format: in vivo; conditions: intravenous
Text: To further understand the effect and kinetics of BChE-mediated SC detoxification using continuous vital sign monitoring, the inventors moved to a larger rodent model of SC toxicity. […] At no point following loss of measurable pulse and venous oxygen saturation did these signs return in animals receiving SC 0.9% saline.

[1] = reported value (Sun et al., 2002); read-out: KM, cocaine hydrolysis; cited from earlier work
[2] = previously published (Lockridge, 1990), thioester analog assay, cited from earlier work
[3] = Succinylcholine hydrolase activity assay (96-well, choline oxidase/peroxidase); format: biochemical
Procedure: Assay of butyrylcholine hydrolysis followed the method of Ellman as described in (Geyer et al., 2010). Succinylcholine hydrolase activity was monitored by the method of George and co-workers (George et al., 1988) with modifications to fit a 96-well plate format. Briefly, our standard succinylcholine-hydrolysis buffer contained 100 mM NaH2PO4/Na2HPO4 buffer pH 7.5, 0.77 mM phenol, 0.15 mM 4-aminoantipyrine, 1 U/mL choline oxidase, and 1.2 U/mL horse raddish peroxidase type I. Appropriate volumes of 10× stock solutions (in 100 mM NaH2PO4/Na2HPO4 buffer pH 7.5) were pre-mixed and dispensed at 160 μL aliquotes onto 96-well plates followed by addition of the substrate succinylcholine chloride (20 μl, final concentrations as indicated). Reactions were started by addition of pBChE (4.74 nM) to yield a final well volume of 200 μl. Hydrolysis was monitored by recording absorbance changes at 500 nm. Self hydrolysis rates were measured on samples that contained no enzyme and were subtracted from the enzymatically catalyzed reaction rates. A choline standard curve was similarly created by using the same assay except that choline chloride replaced succinylcholine (final concentration range of 10-100 μM).
Kinetic analysis was done according to Radic et al. (Radic et al., 1993) as follows. Initial enzyme velocity, V0, was plotted as a function of substrate concentration and the results were fitted by nonlinear regression using GraphPad Prism to the following equation: […]
where [SC] is the concentration of SC, Vmax is maximal velocity, KM is the Michaelis-Menten constant, KSS is the dissociation constant of substrate from the enzyme's peripheral binding site, and b a factor that reflect the efficiency of hydrolysis of the substrate in the presence of another substrate molecule bound at the peripheral site (with substrate activation when b>1).

SC-induced apnea [4] = test: Reversal of succinylcholine-induced apnea in mice; format: in vivo, Male FVB/N mice (Mus musculus)
Procedure: Mouse experiments were conducted as follows. Male FVB/N mice (Mus musculus, 8-12 weeks old) were anesthetized by injection of ketamine/xylazine/acepromazide cocktail at the dose of 0.05 mL per 25 g of total body weight (concentrations were, respectively 21 mg/mL, 2.4 mg/mL, and 0.3 mg/mL). Anesthetized mice were assessed for respiratory rate by counting respirations for 30 seconds using a Littman model 3000 electronic stethoscope placed on the mouse left mid axillary line and extrapolating the per minute rate. Mice were then injected intravenously (tail vein) with 1 mg/kg succinylcholine (time 0 min). At time+3 min mice were injected with pBChE (0.6 mg/kg, ˜15 Upper animal) in 0.9% saline (or 0.9% saline vehicle control) and respiratory rate was obtained as above at the indicated time points. At time+15 minutes all surviving mice were euthanized by CO2 asphyxiation and subsequent cervical dislocation. At no time during the experiment did the mice receive any other therapy including, but not limited to, airway protection/management, artificial ventilations, compressions, or any pharmacological assistance.
Statistical analyses were carried out using the GraphPad Prism software. Log-rank (Mantel-Cox) test was used to determine significance of the difference between survival curves.

SC-induced apnea [5] = test: Reversal of succinylcholine-induced apnea in guinea pigs; format: in vivo, Male Hartley guinea pigs (Cavia porcellus)
Procedure: Guinea pig experiments were conducted as follows. Male Hartley guinea pigs (Cavia porcellus, 8 weeks old) were anesthetized with 90 mg/kg ketamine and 10 mg/kg xylazine. Once anesthetized, baseline heart rate (beats per minute) and Sp02 (%) were obtained using a Surgivet Plus Veterinary Anesthesia and Monitoring Module, model #V3404. Guinea pigs were then injected intravenously (leg vein) with 0.334 mg/kg SC (time 0). Heart rate and Sp02 were obtained every minute throughout the course of the experiment. At time+1 min, groups of three apneic guinea pigs were injected with either pBChE (0.19 mg/kg, ˜48 Upper animal) in 0.9% saline (or 0.9% saline vehicle control). At time+15 minutes all surviving guinea pigs were euthanized by CO2 asphyxiation and subsequent cervical dislocation. As above, guinea pigs received no additional care or therapy during experimentation.
Statistical significance of differences between means of heart rate and Sp02 was tested using 1-way analysis of variance (ANOVA) followed by Bonferronits Multiple Comparison Test.

[6] = 0.334 mg/kg SC i.v., 48 U BChE at 1 min, 3 min following SC injection

C[N+](C)(C)CCOC(=O)CCC(=O)OCC[N+](C)(C)C [SC, succinylcholine]
LD50 (mice): 0.28 mg/kg | LD100 (guinea pigs): 0.334 mg/kg

B1: WT BChE (protein, UniProt P06276 29-602, looked up)
Cholinesterase: EDDIIIATKNGKVRGMNLTVFGGTVTAFLGIPYAQPPLGRLRFKKPQSLTKWSDIWNATKYANSCCQNIDQSFPGFHGSEMWNPNTDLSEDCLYLNVWIPAPKPKNATVLIWIYGGGFQTGTSSLHVYDGKFLARVERVIVVSMNYRVGALGFLALPGNPEAPGNMGLFDQQLALQWVQKNIAAFGGNPKSVTLFGESAGAASVSLHLLSPGSHSLFTRAILQSGSFNAPWAVTSLYEARNRTLNLAKLTGCSRENETEIIKCLRNKDPQEILLNEAFVVPYGTPLSVNFGPTVDGDFLTDMPDILLELGQFKKTQILVGVNKDEGTAFLVYGAPGFSKDNNSIITRKEFQEGLKIFFPGVSEFGKESILFHYTDWVDDQRPENYREALGDVVGDYNFICPALEFTKKFSEWGNNAFFYYFEHRSSKLPWPEWMGVMHGYEIEFVFGLPLERRDNYTKAEEILSRSIVKRWANFAKYGNPNETQNNSTSWPVFKSTEQKYLTLNTESTRIMTKLRAQQCRFWTSFFPKVLEMTGNIDEAEWEWKAGFHRWNNYMMDWKNQFNDYTSKKESCVGL
Km [1]: 4.5 µM | Kcat, succinylcholine [2]: 10 s⁻¹ | Km ([2]; read-out: KM, succinylcholine): 35 µM

B2: pBChE (protein, UniProt P06276 29-602, looked up)
Cholinesterase: EDDIIIATKNGKVRGMNLTVFGGTVTAFLGIPYAQPPLGRLRFKKPQSLTKWSDIWNATKYANSCCQNIDQSFPGFHGSEMWNPNTDLSEDCLYLNVWIPAPKPKNATVLIWIYGGGFQTGTSSLHVYDGKFLARVERVIVVSMNYRVGALGFLALPGNPEAPGNMGLFDQQLALQWVQKNIAAFGGNPKSVTLFGESAGAASVSLHLLSPGSHSLFTRAILQSGSFNAPWAVTSLYEARNRTLNLAKLTGCSRENETEIIKCLRNKDPQEILLNEAFVVPYGTPLSVNFGPTVDGDFLTDMPDILLELGQFKKTQILVGVNKDEGTAFLVYGAPGFSKDNNSIITRKEFQEGLKIFFPGVSEFGKESILFHYTDWVDDQRPENYREALGDVVGDYNFICPALEFTKKFSEWGNNAFFYYFEHRSSKLPWPEWMGVMHGYEIEFVFGLPLERRDNYTKAEEILSRSIVKRWANFAKYGNPNETQNNSTSWPVFKSTEQKYLTLNTESTRIMTKLRAQQCRFWTSFFPKVLEMTGNIDEAEWEWKAGFHRWNNYMMDWKNQFNDYTSKKESCVGL
turnover number Kcat=Vmax/[BChE]T, succinylcholine hydrolysis ([3]; [BChE]=4.74 nM): 8.6 ± 0.55 s⁻¹ | Vmax, succinylcholine hydrolysis ([3]; [BChE]=4.74 nM, ±SEM, nonlinear regression): 2.45 ± 0.16 µM/min | Kss (dissociation constant of substrate from peripheral binding site) ([3]; ±SEM, nonlinear regression): 2.0 ± 0.3 mM | Km ([3]; ±SEM, nonlinear regression, read-out: KM, succinylcholine hydrolysis): 57 ± 7 µM | b (substrate activation factor) ([3]; ±SEM, substrate activation when b>1): 2.9±0.1 | survival (SC-induced apnea [4]; 1 mg/kg SC i.v., 15 U (0.6 mg/kg) pBChE at 3 min, three mice): survived; also recorded: survival of all pBChE-treated mice | protection from SC-induced apnea (SC-induced apnea [4]; respiration rate monitored, FIG. 19): protects mice from SC-induced apnea | heart rate (SC-induced apnea [5]; [6]): at baseline | spontaneous respirations (SC-induced apnea [5]; [6]): return of spontaneous respirations | venous oxygenation (SC-induced apnea [5]; [6]): 49% | heart rate response (SC-induced apnea [5]; 0.334 mg/kg SC i.v., 48 U BChE at 1 min, 5 min post SC injection): post-anoxic tachycardia | time by which all vital signs had returned to baseline (SC-induced apnea [5]; 0.334 mg/kg SC i.v., 48 U BChE at 1 min, time post SC injection): ≤ 7 min | protection from high-dose SC-induced apnea (SC-induced apnea [5]; high-dose SC, FIG. 21): fully protects | return of normal vital signs (SC-induced apnea [5]; sublethal doses of SC, FIG. 20): promotes return of normal vital signs

From patent publication US20140248684A1, “COMPOSITIONS AND METHODS FOR THE PRODUCTION AND USE OF HUMAN CHOLINESTERASES” (priority 2011, published 2014)
